Measured values published in the RNAGym collection of RNA variant scans (doi:10.1073/pnas.2313332121).

B1: TPR t1 (parent)
chain: GACCAAUCUGCCCUCAGAGCUCGAGAACAUCUUCGGAUGCAGAGGAGGCAGGCUUCGGUGGCGCGAUAGCGCCAACGUCCUCAACCUCCAAUGCAUCCCACCACAUGAUGAUGCCUGAAGAGCCUUGGUUUUUUG

Variants of: B1
Assay: polymerase ribozyme fitness, log enrichment relative to wild type (log ratio); higher = more active; in vitro selection for triplet polymerase activity
Outline: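 Mutant libraries of both subunits of a heterodimeric triplet polymerase ribozyme were PCR-built, transcribed, and selected once in triplicate, with frozen incubation at −7 °C and capture of gel-excised extended constructs on streptavidin beads before RT-PCR. Illumina sequencing of input and output libraries was filtered to genotypes with ≥10 input reads and ≥1 read per output. Fitness is the logarithm of genotype enrichment over wild-type enrichment, using inverse-variance-weighted replicate averages. The logarithm is base 2.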

In order of rising “polymerase ribozyme fitness (log ratio)” value:
1. GACCAAUCUGCCCUCAGAGCUCGAGAACAUCUUCGGCUGCAGAGGAGGCAGGCUUCGGUGGCGCGAUAGCGCCAAGGUCCUCAACCUCCAAUGCAUCCCACCACAUGAUGAUGCCUCAAGCGCCUUGGUUUUUUG [A37C C76G G117C A121C]  -5.98
2. GACCAAUCUGCCCUCAGAGCUCGAGAACAUCUUCGUAUGCAGAGGAGGCAGGCUUCGGUGGCGCGAUAGCGCCAACGUCCCCAACCUCCAAUGCAUCCCACCACAUCAUGAUGCCUGAAGAGCCUUGGUUUUUUG [G36U U81C G107C]  -5.8
3. GACCAAUCUGCCCUCAGAGCUCGAGAACAUCUUCGUAUGCAGAGGAGGCAGGCUGCGGUGGCGCGAUAGCGCCAACGUCCUCUACCUCCAAUGCAUCCCACCACAUGAUAAUGCCUGAAGAGCCUUGGUGUUUUG [G36U U55G A83U G110A U130G]  -5.37
4. GACCAAUCUGCCCUCAGAGCUCGAGAACAUCUUCGUAUGCAGAGGAGGCAGGCUUCGGUGGCGCGAUAGCGCCAACGUCCUCAACCUCCAAUGCAUCCCACCACAUCAUGAUGCCUGAAGAGCCUUGGUUUUUUG [G36U G107C]  -5.19
5. GACCAAUCUGCCCUCAGAGCUCGAGAACAUCUUCGGCUGCAGAGGAGGCAGGCUUCGGUGGCGCCAUAGCGCCAACGUCCUCAACCUCCAAUGCAUCCCACCACAUGAUGAUGCCUGAAGUGCCUUGGUUUUUUG [A37C G65C A121U]  -5.06
6. GACCAAUCUGCCCUCAGAGCUCGAGAACAUCUUCGGCUGCAGAGAAGGCAGGCUUCGGUGGCGCGAUAGCGCCAACGUCCUCAACCUCCAAUGCAUCCCACCACAUGAUGAUUCCUGAAGAGCCUUGGUUUUUUG [A37C G45A G113U]  -4.52
7. GACCAAUCUGCCCUCAGAGCUCGAGAACAUCUUCGUAUGCAGAGGAGGCAGGCUUCGGUGGCGCGAUAACGCCAACGUCCUCAACCUCCAAUGCAUCCCACCACAUGAUGAUGCCUGAAGAGCCUUGGUUUUUUG [G36U G69A]  -4.06
8. GACCAAUCUGCCCUCAGAGCUCGAGAACAUCUUCGGCUGCAGAGGAGGCAGUCUUCGGUGGCGCGAUAGCGCCAACGUCAUCAACCUCCAAUGCAUCCCACCACAUGAUGAUGCCUGAAGAGCCUUGGUUUUUUG [A37C G52U C80A]  -4.05
9. GACCAAUCUGCCCUCAGAGCUCGAGAACAUCUUCGGCUACAGAGGAGGCAGGCUUCGGUGACGCGAUAGCGCCAACGUCCUCAACCUCCAAUGCAUCCCACCACAUGAUGAAGCCGGAAGAGCCUUGGUUUUAUG [A37C G39A G61A U112A U116G U133A]  -3.64
10. GACCAAUCUGCCCUCAGAGCUCGAGAACAUCUUCGGCUGCAGAGGAGGCAGGCUUGGAUGGCCCGAUAGCGCCAACCUCCUCAACCUCCAAUGCAUCCCACCACAUGAUGAUGCCUGAAGAGCCUUGGUUUUUUG [A37C C56G G58A G63C G77C]  -3.59
11. GACCAAUCUGCCCUCAGAGCUCGAGAACAUCUUCGGCUGCAGAGUAGGCAGGCUUCGGUGCCGCGAUAGCGCCAACGUCCUCAACCUCCAAUGCAUCCCACCACAUGAUGAUGCCUGAAGAGACUUGGUUUUUUG [A37C G45U G61C C123A]  -3.45
12. GACCAAUCUGCCCUCAGAGCUCGAGAACAUCUUCGGCUGCAGAGGAGGCAGGCUUCGGUGGCCCGAUAGCGCCCACGUCCUCAACCUCCAAUGCAUCCCACCACAUGAUGAUGCCUGAAGAGCCUUGGUUUUUUG [A37C G63C A74C]  -3.35
13. GACCAAUCUGCCCUCAGAGCUCGAGAACAUCUUCGGCUGCAGAGGAGGCAGGCUUCGGUGGCGCGAUAACGCCAACGUCCUCAACCUCCAAUGCAUCCCACCACAUGAUGAUGCCUGAAGAGCCUUGGUUUUUUG [A37C G69A]  -3.26
14. GACCAAUCUGCCCUCAGAGCUCGAGAACAUCUUCGGCUGCAGAGGAGGCAGGCUUCGGUAGCGCGAUAGCGCCAACGUCCUCAACCUCCAAUGCAUCCCACAACAUGAUGAUGCCUGAAGAGCCUUGGUUUUUUG [A37C G60A C102A]  -3.1
15. GACCAAUCUGCCCUCAGAGCUCGAGAACAUCUUCGGCUGCAGAGGAGGCAGACUUCGGUGGCGCGAUAUCGCCAACGUCCUCAACCUCCAAUGCAUCCCACCACAUGAUGAUGGCUGAAGAGUCUUGGUUUUUUG [A37C G52A G69U C114G C123U]  -2.89
16. GACCAAUCUGCCCUCAGAGCUCGAGAACAUCUUCGUAUGCAGAGGAGGCAGGCUUCGGUGGCGCGAUAGCGCCAACGUCCUCAACCUCCAAUGCAAACCACCACAUGAUGAUGCCUGAAGAGCCUUAGUUUUUUG [G36U U96A C97A G127A]  -2.83
17. GACCAAUCUGCCCUCAGAGCUCGAGAACAUCUUCGGCUGCAGAGGAGGCAGCCUUCGGUGGCGCGAUAGCGCCAACGUCCUCAACCUCCAAUGCAUCCCACCACAUGAUGAUGCCUAAAGAGCCUUGGUUUUUUG [A37C G52C G117A]  -2.76
18. GACCAAUCUGCCCUCAGAGCUCGAGAACAUCUUCGGCUGCAGAGGAGGCAGGCUUCGGUAGCGCGAUAGCGCCAAGGUCCUCAACCUCCAAUGCAUCCCACCACAUGAUGAUGCCUGAAGAGCCUUGGUUUUUUG [A37C G60A C76G]  -2.7
19. GACCAAUCUGCCCUCAGAGCUCGAGAACAUCUUCGGCUGCAGAGGAGGCAGGCUUCGGUGGGGCGAUAGCGCCAACGUCCUCUACCUUCAAUGCAUCCCACCACAUGAUGAUGCCUGAAGAGCCUUGGUUUUUUG [A37C C62G A83U C88U]  -2.61
20. GACCAAUCUGCCCUCAGAGCUCGAGAACAUCUUCGUAUGCAGAGGAGGCAGGCUCCGGUGGCGCGAUAGCGCCAACGUCCUCAACCUCCAAUACAUCCCACCACAUGAUGAUGCCUGAAGAGCCUUGGUUUUUUG [G36U U55C G93A]  -2.49
21. GACCAAUCUGCCCUCAGAGCUCGAGAACAUCUUCGUAUGCAGAGGAGGCAGGCUUCGGUGGCGCGAUAGCGCCAACGUCCUCAACCUCCAAUGCAUCCCACCACAUGAUUAUGCCUGAAAAGCCUUGGUUUUUUG [G36U G110U G120A]  -2.35
22. GACCAAUCUGCCCUCAGAGCUCGAGAACAUCUUCGUAUGCAGAGGAGGCAGGCUUCGGUGGCGCGAUAGCGCCAACGUCCUCAACCUCCAAUGCAUCCCACCACAUGAUGAUGCCUGAAGAGCCUUAGUUUUUUG [G36U G127A]  -2.27
23. GACCAAUCUGCCCUCAGAGCUCGAGAACAUCUUCGGCUGCAGAGGAGGCAGGCUUCGGUGGCGCGAUAGCGCCAACGUACUCAACCUCCAAUGUAUCCCACCACAUGAUGAUGCCUGAAGAGCCUUGGUUUUUUG [A37C C79A C94U]  -2.07
24. GACCAAUCUGCCCUCAGAGCUCGAGAACAUCUUCGGCUGCAGAGGAGGCAGGCUUCGGUGGCGCGAUAGCGCCAACGUCCUCAACCUCCAAUGCAUCCCACCACAUGAUGAUGCUUGAAGAGCCUUGGUAUGUUG [A37C C115U U130A U132G]  -1.99
25. GACCAAUCUGCCCUCAGAGCUCGAGAACAUCUUCGUAUGCAGAGGAGGCAGGCUUCGGUGGCGCGAUAGCGCCAACGUCCUCAACCUCCAAUGCAUCCCACCACAGGAUGAUGCCUGAAAAGCCUUGGUUUUUUG [G36U U106G G120A]  -1.89
26. GACCAAUCUGCCCUCAGAGCUCGAGAACAUCUUCGUAUGCAGAGGAGGCAGGCUUCGGUGGCGCGAUAGCGCCAACGUCCUCAACCUCCAAUGCAUCCCACCACAUGAUGAUGCCUGAAGAACCUUGGUUAUUUG [G36U G122A U131A]  -1.83
27. GACCAAUCUGCCCUCAGAGCUCGAGAACAUCUUCGGCUGCAGAGGAGGCAGGCUUCGGUGGCGCGAUAGAGCCAACGUCCUCAACCUCCAAUGCAUCCCACCACAUGAUGAUGCCUGAAGAGCCUUGGUUUUUUG [A37C C70A]  -1.82
28. GACCAAUCUGCCCUCAGAGCUCGAGAACAUCUUCGUAUGCAGAGGAGGCAGGCUUCGGCGGCGCGAUAGCGCCAACGUCCUCAACUUCCAAUGCAUCCCACCACAUGAUGAUGCCUGAAGAGCCUUGGUUUUUUG [G36U U59C C86U]  -1.77
29. GACCAAUCUGCCCUCAGAGCUCGAGAACAUCUUCGGCUGCAGAGGAGCCAGGCUUCGGUGGCGCGAUAGCGCCAACGUCCUCAACCUCCAAUGCAUCCCACCACAUGAUGAUGCCUGAAGAGCCUUGGUUUUUUG [A37C G48C]  -1.64
30. GACCAAUCUGCCCUCAGAGCUCGAGAACAUCUUCGUAUGCAGAGGAGGCAGGCUUCGGUGGCGCGAUAGCGCCAACGUCCUCAACCUCCAAUGCAUCCCACCACAAGAUGAUGCCUGAAGAGCCUUGGUUUUUUG [G36U U106A]  -1.6
31. GACCAAUCUGCCCUCAGAGCUCGAGAACAUCUUCGGCUGCAGAGGAGGCAGGCUUCGGUGGCGCGAUAGAGUCAACGUCCUCAACCUCCAAUGCAUCCCACCACAUGAUGAUGCCUGAAUAGCCUUGGUUUUUUG [A37C C70A C72U G120U]  -1.56
32. GACCAAUCUGCCCUCAGAGCUCGAGAACAUCUUCGGCUGCAGAGGAGGCAGGCUUCGGUGUCGCGAUAGCGCUAACGUCCUCAACCUCCAAUGCAUCCCACCACAUGAUGAUGCCUGAAGAGCCUUGGUUUUUUG [A37C G61U C73U]  -1.35
33. GACCAAUCUGCCCUCAGAGCUCGAGAACAUCUUCGGCUGCAGAGGAGGCAGGCUUCGGUGGCACGAUAGCGCCAACGUCCUCAACCUCCAAUGCAUCCCACCACAUGAUGAUGCCUGAAGAGCCUUGGUUUUUUG [A37C G63A]  -0.905
34. GACCAAUCUGCCCUCAGAGCUCGAGAACAUCUUCGGCUGCAGAGUAGGCAGGCUUCGGUGGCGCGAUAGCGCCAACGUCCUCAACCUCCAAUGCAUCCCACCACAUGAUGAUGCCUGAAGAGACUUGGUUUUUUG [A37C G45U C123A]  -0.836
35. GACCAAUCUGCCCUCAGAGCUCGAGAACAUCUUCGUAUGCAGAGGAGGCAGGCUUCGGUGGCGCGAUAUCGCCAUCGUCCUCAACCUCCAAUGCAUCCCACCACAUGAUGAUGCCUGAAGAGCCUUGGUUUUUUG [G36U G69U A75U]  -0.726
36. GACCAAUCUGCCCUCAGAGCUCGAGAACAUCUUCGUAUGCAGAGGAGGCAGGCUUCGGUGGCGCGAUAGCGCCAACGUCCUCAACCUCCAAUGCAUCCCACCACAUGAUGAUGCCUGAAAAGCCUAGGUUUAUUG [G36U G120A U126A U132A]  -0.708
37. GACCAAUCUGCCCUCAGAGCUCGAGAACAUCUUCGGCUGCAGAGGAGGCAGGCUUCGGUGGCGCGAUAGCGCCAACGUCCUCAACCUCCAAUGCUUCCCACCACAUGAUGAUGCCUGAAGAGCCUUGGUUUUUUG [A37C A95U]  -0.484
38. GACCAAUCUGCCCUCAGAGCUCGAGAACAUCUUCGGCUGUAGAGGAGGCAGGUUUCGGUGGCUCGAUAGCGCCAACGUCCUCAACCUCCAAUGCAUCCCACCACAUGAUGAUGCCUGAAGAGGCUUGGUUUUCUG [A37C C40U C53U G63U C123G U133C]  -0.381
39. GACCAAUCUGCCCUCAGAGCUCGAGAACAUCUUCGGCUGCAGAGGAGGCCGGCUUCGGUGGCGCGAUAGCGCCAACGUCCUCAACCUCCAAUGCAUCCCACCACAUGAUGAUGCCUGAAGAGCCUUGGUUUUUUG [A37C A50C]  -0.281
40. GACCAAUCUGCCCUCAGAGCUCGAGAACAUCUUCGGCUGCAGAGGAGGCAGGCUUCGGUGGCGCGAUAGCGCCAAGGUCCUCAACCUCCAAUGCAUCCCACCACAUGAUGAUGCCUGAAGAGCCUUGGUUUUUUG [A37C C76G]  -0.251
41. GACCAAUCUGCCCUCAGAGCUCGAGAACAUCUUCGGCUGCAGAGGAGGCAGGCUUCGGUGUCGCGAUAGCGCCAACGUCCUCAACCUCCAAUGCAUCCCACCAUAUGAUGACGCCUGAAGAGCCUUGGUUUUUUG [A37C G61U C104U U112C]  1.04
42. GACCAAUCUGCCCUCAGAGCUCGAGAACAUCUUCGUAUGCAGAGGAGGCAGGCUUCGGUGGCGCGAUAGCGCCAACGUCCUCAACCCCCAAUGCAUCCCACCACAUGAUGAUGCUUGAGGAGCCUUGGUUCUUUG [G36U U87C C115U A119G U131C]  1.61
